Experiment [1] deals with moesin FERM domain, GST tag cleaved (UniProt P26038 2-295). As to the kind of experiment: fluorescence polarisation.
Experiment [2] addresses T1, merlin FERM domain (22-312), GST tag cleaved (human, UniProt P35240 22-312).
T1 sequence: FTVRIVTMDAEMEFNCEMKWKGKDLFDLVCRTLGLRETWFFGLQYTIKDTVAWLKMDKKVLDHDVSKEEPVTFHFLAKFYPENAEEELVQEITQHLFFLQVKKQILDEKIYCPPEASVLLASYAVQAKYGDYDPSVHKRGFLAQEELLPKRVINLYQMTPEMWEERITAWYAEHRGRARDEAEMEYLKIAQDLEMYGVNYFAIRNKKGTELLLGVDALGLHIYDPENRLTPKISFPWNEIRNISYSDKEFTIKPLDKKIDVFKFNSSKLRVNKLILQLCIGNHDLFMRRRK
As to the kind of experiment: fluorescence polarisation. (In general: Fluorescence polarisation rises when a labelled molecule tumbles more slowly, as on binding a larger partner.)

Where no end group is shown, it is not given here.

Chain of moesin FERM domain, GST tag cleaved (P26038 2-295): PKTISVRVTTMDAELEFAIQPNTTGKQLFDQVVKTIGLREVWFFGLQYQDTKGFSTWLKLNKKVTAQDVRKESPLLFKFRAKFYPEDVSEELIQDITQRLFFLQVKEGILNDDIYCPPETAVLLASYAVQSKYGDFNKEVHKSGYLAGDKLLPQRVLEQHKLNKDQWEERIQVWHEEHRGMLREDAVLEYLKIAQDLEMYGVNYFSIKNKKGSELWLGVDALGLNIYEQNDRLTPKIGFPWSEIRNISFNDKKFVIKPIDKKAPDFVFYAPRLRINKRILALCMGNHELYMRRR

B1: KIRREL3 peptide with N-terminal extension of three amino acids (634-652), unlabeled (peptide)
peptide: TNGYYSVNTFKEHHSTPTI
By Kd is commonly meant the equilibrium constant for the complex coming apart. Read a low Kd as a tighter complex. B1 registered a Kd in experiment [1] of 120 nM.

B2: KIRREL3_(637-652), unlabeled peptide (peptide)
peptide: YYSVNTFKEHHSTPTI
In the case of B2, binding in experiment [1] was put at a Kd of 90 nM.

B3: FITC-labeled NOP53_(192-207) (peptide)
peptide: FYDLWASDNPLDRPLV
modifications: also: FITC label, site not given here
Turning to B3, the binding result in experiment [2] was “binds”.

B4: FITC-labeled ZNF622_(341-356) (peptide)
peptide: LEFADFYDFRSSYPDH
modifications: also: FITC label, site not given here
Regarding B4, in experiment [2], the binding result is “binds”.

B5: FITC-labeled FAM83G_(111-126) (peptide)
peptide: AEPLPSLEYWPQKSDR
modifications: also: FITC label (position not given here)
In the case of B5, the Kd in experiment [2] was determined as 93 µM.

The record behind these values is doi:10.1101/2020.11.23.394106 (bioRxiv, 2020).
